Assay results: patent publication US20200369775A1 (Dana-Farber, published 2020)

What was measured:
[1] = biological target: T1, IL-2 receptor (IL-2R) complex of α, β and γ chains (UniProt P01589 22-272; P14784 27-551; P31785 23-369); test: transiently transfected 293T cells, control experiment
T1 construct: whole, on cells; co-expressed on transiently transfected 293T cells in the control experiment; also called IL-2Rs; the complex
T1 sequence (looked up) 1: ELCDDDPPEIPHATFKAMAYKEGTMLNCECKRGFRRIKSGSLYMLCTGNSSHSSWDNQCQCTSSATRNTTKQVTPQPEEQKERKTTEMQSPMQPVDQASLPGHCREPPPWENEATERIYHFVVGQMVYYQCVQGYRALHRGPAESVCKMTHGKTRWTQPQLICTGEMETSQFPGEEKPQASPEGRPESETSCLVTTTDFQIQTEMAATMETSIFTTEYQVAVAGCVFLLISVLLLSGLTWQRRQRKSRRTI
T1 sequence (looked up) 2: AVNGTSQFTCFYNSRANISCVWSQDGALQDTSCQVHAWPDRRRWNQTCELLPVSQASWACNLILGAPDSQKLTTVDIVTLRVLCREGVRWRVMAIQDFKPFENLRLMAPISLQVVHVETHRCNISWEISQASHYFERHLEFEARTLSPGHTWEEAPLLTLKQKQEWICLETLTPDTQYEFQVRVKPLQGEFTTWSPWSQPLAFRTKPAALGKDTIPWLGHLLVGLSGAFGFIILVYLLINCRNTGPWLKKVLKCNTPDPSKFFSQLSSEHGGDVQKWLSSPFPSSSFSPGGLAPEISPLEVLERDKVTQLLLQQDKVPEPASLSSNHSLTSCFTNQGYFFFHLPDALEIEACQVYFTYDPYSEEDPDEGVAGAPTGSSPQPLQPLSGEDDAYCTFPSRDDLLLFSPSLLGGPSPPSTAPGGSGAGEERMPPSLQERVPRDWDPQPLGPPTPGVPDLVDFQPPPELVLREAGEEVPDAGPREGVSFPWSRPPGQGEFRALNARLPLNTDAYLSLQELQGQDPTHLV
T1 sequence (looked up) 3: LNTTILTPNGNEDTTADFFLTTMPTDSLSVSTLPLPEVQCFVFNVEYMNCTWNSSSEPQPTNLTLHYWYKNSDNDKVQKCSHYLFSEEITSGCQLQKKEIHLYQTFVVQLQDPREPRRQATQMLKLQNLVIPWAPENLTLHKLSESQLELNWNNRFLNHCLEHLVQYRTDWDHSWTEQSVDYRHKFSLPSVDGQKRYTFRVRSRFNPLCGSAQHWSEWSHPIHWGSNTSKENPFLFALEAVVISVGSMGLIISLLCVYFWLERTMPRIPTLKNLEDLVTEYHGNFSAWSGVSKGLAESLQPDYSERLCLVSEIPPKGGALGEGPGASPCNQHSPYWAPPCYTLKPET

[2] = biological target: T2, CD25 (TAC), the α chain of IL-2 receptor (UniProt P01589 22-272, limits assumed); test: as above
T2 construct: whole, on cells; also called IL-2Rα; α subunit chain
T2 sequence (looked up): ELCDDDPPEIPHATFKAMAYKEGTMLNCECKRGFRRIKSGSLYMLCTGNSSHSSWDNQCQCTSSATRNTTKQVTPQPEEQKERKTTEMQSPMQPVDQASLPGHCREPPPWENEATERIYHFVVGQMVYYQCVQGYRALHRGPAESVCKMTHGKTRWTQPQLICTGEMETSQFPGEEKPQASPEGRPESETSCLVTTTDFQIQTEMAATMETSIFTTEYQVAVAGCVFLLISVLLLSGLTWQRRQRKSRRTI

[3] = biological target: T3, IL-2 receptor β subunit chain (UniProt P14784 27-551); test: as above
T3 construct: whole, on cells; also called β chain; IL-2R β
T3 sequence (looked up): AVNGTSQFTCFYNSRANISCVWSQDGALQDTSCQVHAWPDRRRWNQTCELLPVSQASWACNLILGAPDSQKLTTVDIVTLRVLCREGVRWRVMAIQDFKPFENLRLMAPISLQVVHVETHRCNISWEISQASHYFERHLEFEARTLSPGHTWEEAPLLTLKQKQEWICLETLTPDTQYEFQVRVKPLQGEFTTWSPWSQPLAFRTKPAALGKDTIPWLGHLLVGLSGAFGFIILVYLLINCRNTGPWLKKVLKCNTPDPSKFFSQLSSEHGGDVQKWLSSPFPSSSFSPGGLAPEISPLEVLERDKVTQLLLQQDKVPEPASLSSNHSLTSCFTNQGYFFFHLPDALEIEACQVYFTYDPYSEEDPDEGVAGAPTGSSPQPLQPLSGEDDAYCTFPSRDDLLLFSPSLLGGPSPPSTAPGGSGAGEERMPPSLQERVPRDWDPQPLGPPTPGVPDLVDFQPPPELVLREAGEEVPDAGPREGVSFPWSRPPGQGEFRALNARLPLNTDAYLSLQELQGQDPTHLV

[4] = biological target: T4, IL-2 receptor γ subunit chain (UniProt P31785 23-369); test: as above
T4 construct: whole, on cells; also called γ chain; IL-2R γ
T4 sequence (looked up): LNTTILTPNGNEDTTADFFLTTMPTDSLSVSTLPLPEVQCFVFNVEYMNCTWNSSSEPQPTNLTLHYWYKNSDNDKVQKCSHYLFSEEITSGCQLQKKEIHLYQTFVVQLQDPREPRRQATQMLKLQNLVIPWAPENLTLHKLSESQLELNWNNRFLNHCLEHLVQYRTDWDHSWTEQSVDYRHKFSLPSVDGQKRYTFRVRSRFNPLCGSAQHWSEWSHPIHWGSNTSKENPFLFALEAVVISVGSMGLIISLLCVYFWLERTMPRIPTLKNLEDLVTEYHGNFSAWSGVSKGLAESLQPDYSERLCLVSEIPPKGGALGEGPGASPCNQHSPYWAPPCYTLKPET

[5] = biological target: T5, CC chemokine receptor 4 (CCR4) (human, UniProt P51679 1-360); test: depletion of CCR4+ tumor-primed T cells with antibody-conjugated beads, checked by flow cytometry
T5 construct: whole, on cells; Endogenous CCR4 on human T cell subsets and Mac-1 cells
T5 sequence (looked up): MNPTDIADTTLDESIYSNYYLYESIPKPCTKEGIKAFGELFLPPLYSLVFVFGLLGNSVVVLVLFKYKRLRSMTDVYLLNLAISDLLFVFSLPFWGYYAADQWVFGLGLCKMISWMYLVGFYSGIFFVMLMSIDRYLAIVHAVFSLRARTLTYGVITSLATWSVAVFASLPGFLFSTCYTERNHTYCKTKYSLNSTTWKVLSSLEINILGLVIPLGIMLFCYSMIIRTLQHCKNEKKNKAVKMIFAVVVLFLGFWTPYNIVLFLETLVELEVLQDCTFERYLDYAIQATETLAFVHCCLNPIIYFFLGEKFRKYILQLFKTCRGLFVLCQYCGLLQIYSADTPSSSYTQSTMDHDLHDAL
Method: FIG. 4. The activity of tumor-primed T cells on IGROV-1 cells. (A) Tumor-primed T cells were stained by anti-CD3, CD4, CD8, CD25 and (B) CCR4 antibodies. CCR4-depleted tumor-primed T cells by mAb2-3-conjugated beads and T cell subsets in tumor-primed T cells were analyzed by flow cytometry. (C) Tumor-primed T cells and mAb2-3-depleted tumor-primed T cells were incubated with IGROV-1 cells for 24 and 48 hours and then the supernatant were harvested and detected the expression level of IFN-γ. […] (D) Intracellular IFN-γ staining of CD4 and CD8 T cells from coculture. Cells were harvested at 48 hours post-coculture; incubated for 6 h in the presence of brefeldin A; stained for CD3, CD4, and CD8; fixed in paraformaldehyde; permeabilized; and stained for intracellular IFN-γ. The cells were gated on lymphocytes by size and CD markers and analyzed by flow cytometry. (E) The cytotoxic activities of tumor-primed T cells and mAb2-3-depleted tumor primed T cells were further detected by LDH ELISA assay. All experiments represented triplicates in each time point with the means±S.D. and performed in two independent experiments. *, **, and *** represents student's t-test p value<0.05, 0.01, and 0.005, respectively.
To establish an OvCA xenograft bearing humanized mouse model, IGROV-1-specific T cells in vitro were created that could be tested subsequently for in vivo immunotherapy. […]

B1: mAb2-3 (isotype not stated for the experiment) (antibody, V domains shown)
VH: QVQLVQSGAEVKKPGASVKVSCKASGYTFASAWMHWMRQAPGQGLEWIGWINPGNVNTKYNEKFKGRATLTVDTSTNTAYMELSSLRSEDTAVYYCARSTYYRPLDYWGQGTLVTVSS
VL: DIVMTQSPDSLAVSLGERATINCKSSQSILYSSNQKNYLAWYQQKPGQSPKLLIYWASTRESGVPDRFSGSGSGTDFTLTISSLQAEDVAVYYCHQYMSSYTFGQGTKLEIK
binding result [1]: no binding
binding result [2]: no binding
binding result [3]: no binding
binding result [4]: no binding
binding result [5]: binds
